How the values were obtained:
Experiment in all cases: receptor-Fc IP
VEGFR-1-Fc = target: T1, VEGFR-1-Fc (UniProt P17948 27-338)
T1 construct: domain: first three Ig domains; expressed in Drosophila S2 cells, purified on Protein A sepharose; also called VEGFR-1-Fc fusion protein; not shown: Fc fragment from the Signal-pIgPlus vector
In short: (§1)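 fusion protein at 400 ng/ml in an IP mix (PBS, 1.5% BSA, 0.06% Tween 20, 3 μg/ml heparin) was combined with sample supernatant at a 1:2 ratio. Bound ligand captured by immunoprecipitation with pentahistidine antibody.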

VEGFR-2-Fc = target: T2, VEGFR-2-Fc (UniProt P35968 20-322)
T2 construct: domain: first 3 Ig domains; conditioned supernatant of 293T cells; also called VEGFR-2-Fc fusion protein; not shown: Fc fragment of the pIg vector
In short: as §1

VEGFR-3-Fc = target: T3, VEGFR-3-Fc (UniProt P35916 25-328)
T3 construct: domain: first three Ig domains; conditioned supernatant of 293T cells; also called VEGFR-3-Fc fusion protein; not shown: Fc fragment of the pIg vector
T3 sequence (looked up): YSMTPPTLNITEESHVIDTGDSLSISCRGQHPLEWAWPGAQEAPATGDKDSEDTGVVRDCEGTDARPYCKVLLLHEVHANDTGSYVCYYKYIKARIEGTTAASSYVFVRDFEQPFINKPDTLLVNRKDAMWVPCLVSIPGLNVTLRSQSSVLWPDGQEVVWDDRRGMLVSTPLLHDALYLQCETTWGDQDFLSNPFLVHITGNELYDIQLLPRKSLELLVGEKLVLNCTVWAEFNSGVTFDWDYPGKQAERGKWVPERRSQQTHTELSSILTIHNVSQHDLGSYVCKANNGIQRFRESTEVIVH
In short: as §1

Measured: binding result

T1 sequence (P17948 27-338): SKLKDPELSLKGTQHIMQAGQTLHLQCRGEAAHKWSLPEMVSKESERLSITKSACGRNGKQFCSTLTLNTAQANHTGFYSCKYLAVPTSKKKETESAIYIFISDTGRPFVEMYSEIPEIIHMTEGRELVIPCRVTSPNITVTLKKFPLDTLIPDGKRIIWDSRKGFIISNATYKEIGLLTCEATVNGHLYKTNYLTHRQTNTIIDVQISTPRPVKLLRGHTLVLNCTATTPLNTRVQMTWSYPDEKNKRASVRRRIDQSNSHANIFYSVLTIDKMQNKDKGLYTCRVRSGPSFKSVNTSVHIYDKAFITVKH
T2 sequence (P35968 20-322): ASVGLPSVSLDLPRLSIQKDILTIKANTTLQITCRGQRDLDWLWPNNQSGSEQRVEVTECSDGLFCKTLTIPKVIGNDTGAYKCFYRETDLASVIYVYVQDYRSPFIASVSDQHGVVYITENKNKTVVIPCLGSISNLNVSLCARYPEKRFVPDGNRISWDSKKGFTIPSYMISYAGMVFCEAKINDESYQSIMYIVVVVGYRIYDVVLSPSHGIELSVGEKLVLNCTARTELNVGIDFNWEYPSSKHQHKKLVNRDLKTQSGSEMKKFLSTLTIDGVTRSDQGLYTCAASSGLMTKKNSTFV

B1: 62-9 (ligand)
chain: GQNHHEVVKFMDVYQRSYCHPREVCIDVGKEFGVATNTFFKPPCVSVYRCGGCCNDEGLECVPTEESNITMQIMRITVPLSQGPKPVTISFLQHNKCECRPKKD
no binding: all assays above

B2: 63-5 (ligand)
chain: GQNHHEVVKFMDVYQRSYCHPREVCIDVGKEYPDEIEYIFKPPCVSVYRCGGCCNDEGLECVPTEESNITMQIMRIKPHQGQHIGEMSFANHTSCRCMSKLD
no binding: all assays above

B3: 74-15 (ligand)
chain: GQNHHEVVKSIDNEWRKTQCMPREVCIDVGKEFGVATNTFFKPSCVPLMRCGGCCNSEGLQCVPTEESNITMQIMRITVPLSQGPKPVTISFANHTSCRCMSKLD
no binding: all assays above

B4: 73-5 (ligand)
chain: GQNHHEVVKSIDNEWRKTQCMPREVCIDVGKEYPDEIEYIFKPPCVSVYRCGGCCNDEGLECVPTEESNITMQIMRIKPHQGQHIGEMSFANHTSCRCMSKLD
no binding: all assays above

B5: 71-10 (ligand)
chain: GQNHHEVVKSIDNEWRKTQCMPREVCIDVGKEYPDEIEYIFKPSCVPLMRCGGCCNDEGLECMNTSTSYLSKTLFEITVPLSQGPKPVTISFLQHNKCECRPKKD
no binding: all assays above

B6: 73-10 (ligand)
chain: GQNHHEVVKSIDNEWRKTQCMPREVCIDVGKEYPDEIEYIFKPPCVSVYRCGGCCNDEGLECMNTSTSYLSKTLFEITVPLSQGPKPVTISFLQHNKCECRPKKD
no binding: all assays above

B7: 71-16 (ligand)
chain: GQNHHEVVKSIDNEWRKTQCMPREVCIDVGKEYPDEIEYIFKPSCVPLMRCGGCCNSEGLQCMNTSTSYLSKTLFEITVPLSQGPKPVTISFANHTSCRCMSKLD
no binding: all assays above

B8: 71-12 (ligand)
chain: GQNHHEVVKSIDNEWRKTQCMPREVCIDVGKEYPDEIEYIFKPSCVPLMRCGGCCNSEGLQCMNTSTSYLSKTLFEITVPLSQGPKPVTISFLQHNKCECRPKKD
no binding: all assays above

B9: 73-12 (ligand)
chain: GQNHHEVVKSIDNEWRKTQCMPREVCIDVGKEYPDEIEYIFKPPCVSVYRCGGCCNSEGLQCMNTSTSYLSKTLFEITVPLSQGPKPVTISFLQHNKCECRPKKD
no binding: all assays above

B10: 74-6 (ligand)
chain: GQNHHEVVKSIDNEWRKTQCMPREVCIDVGKEFGVATNTFFKPSCVPLMRCGGCCNDEGLECMNTSTSYLSKTLFEIKPHQGQHIGEMSFANHTSCRCMSKLD
no binding: all assays above

B11: 63-10 (ligand)
chain: GQNHHEVVKFMDVYQRSYCHPREVCIDVGKEYPDEIEYIFKPPCVSVYRCGGCCNDEGLECMNTSTSYLSKTLFEITVPLSQGPKPVTISFLQHNKCECRPKKD
no binding: all assays above

B12: 71-2 (ligand)
chain: GQNHHEVVKSIDNEWRKTQCMPREVCIDVGKEYPDEIEYIFKPSCVPLMRCGGCCNDEGLECMNTSTSYLSKTLFEIKPHQGQHIGEMSFLQHNKCECRPKKD
no binding: all assays above

B13: 74-4 (ligand)
chain: GQNHHEVVKSIDNEWRKTQCMPREVCIDVGKEFGVATNTFFKPSCVPLMRCGGCCNSEGLQCMNTSTSYLSKTLFEIKPHQGQHIGEMSFLQHNKCECRPKKD
no binding: all assays above

B14: 73-2 (ligand)
chain: GQNHHEVVKSIDNEWRKTQCMPREVCIDVGKEYPDEIEYIFKPPCVSVYRCGGCCNDEGLECMNTSTSYLSKTLFEIKPHQGQHIGEMSFLQHNKCECRPKKD
no binding: all assays above

B15: 74-2 (ligand)
chain: GQNHHEVVKSIDNEWRKTQCMPREVCIDVGKEFGVATNTFFKPSCVPLMRCGGCCNDEGLECMNTSTSYLSKTLFEIKPHQGQHIGEMSFLQHNKCECRPKKD
no binding: all assays above

B16: 71-8 (ligand)
chain: GQNHHEVVKSIDNEWRKTQCMPREVCIDVGKEYPDEIEYIFKPSCVPLMRCGGCCNSEGLQCMNTSTSYLSKTLFEIKPHQGQHIGEMSFANHTSCRCMSKLD
no binding: all assays above

B17: 71-4 (ligand)
chain: GQNHHEVVKSIDNEWRKTQCMPREVCIDVGKEYPDEIEYIFKPSCVPLMRCGGCCNSEGLQCMNTSTSYLSKTLFEIKPHQGQHIGEMSFLQHNKCECRPKKD
no binding: all assays above

B18: 71-1 (ligand)
chain: GQNHHEVVKSIDNEWRKTQCMPREVCIDVGKEYPDEIEYIFKPSCVPLMRCGGCCNDEGLECVPTEESNITMQIMRIKPHQGQHIGEMSFLQHNKCECRPKKD
no binding: all assays above

B19: 73-3 (ligand)
chain: GQNHHEVVKSIDNEWRKTQCMPREVCIDVGKEYPDEIEYIFKPPCVSVYRCGGCCNSEGLQCVPTEESNITMQIMRIKPHQGQHIGEMSFLQHNKCECRPKKD
no binding: all assays above

B20: 73-1 (ligand)
chain: GQNHHEVVKSIDNEWRKTQCMPREVCIDVGKEYPDEIEYIFKPPCVSVYRCGGCCNDEGLECVPTEESNITMQIMRIKPHQGQHIGEMSFLQHNKCECRPKKD
no binding: all assays above

B21: 74-3 (ligand)
chain: GQNHHEVVKSIDNEWRKTQCMPREVCIDVGKEFGVATNTFFKPSCVPLMRCGGCCNSEGLQCVPTEESNITMQIMRIKPHQGQHIGEMSFLQHNKCECRPKKD
no binding: all assays above

B22: 74-1 (ligand)
chain: GQNHHEVVKSIDNEWRKTQCMPREVCIDVGKEFGVATNTFFKPSCVPLMRCGGCCNDEGLECVPTEESNITMQIMRIKPHQGQHIGEMSFLQHNKCECRPKKD
no binding: all assays above

B23: 71-3 (ligand)
chain: GQNHHEVVKSIDNEWRKTQCMPREVCIDVGKEYPDEIEYIFKPSCVPLMRCGGCCNSEGLQCVPTEESNITMQIMRIKPHQGQHIGEMSFLQHNKCECRPKKD
no binding: all assays above

B24: 71-7 (ligand)
chain: GQNHHEVVKSIDNEWRKTQCMPREVCIDVGKEYPDEIEYIFKPSCVPLMRCGGCCNSEGLQCVPTEESNITMQIMRIKPHQGQHIGEMSFANHTSCRCMSKLD
no binding: all assays above

B25: 71-5 (ligand)
chain: GQNHHEVVKSIDNEWRKTQCMPREVCIDVGKEYPDEIEYIFKPSCVPLMRCGGCCNDEGLECVPTEESNITMQIMRIKPHQGQHIGEMSFANHTSCRCMSKLD
no binding: all assays above
